From publication PMC9482650, “Quantitative fragmentomics allow affinity mapping of interactomes” (Nature Communications, 2022)

T1: RHPN1, Q8TCX5
T1 sequence (Q8TCX5 508-602, limits assumed, looked up): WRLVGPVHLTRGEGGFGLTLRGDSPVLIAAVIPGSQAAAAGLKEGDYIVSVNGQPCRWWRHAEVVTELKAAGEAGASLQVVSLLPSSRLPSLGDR

T2: MPDZ_5, O75970
T2 sequence (O75970 695-796, limits assumed, looked up): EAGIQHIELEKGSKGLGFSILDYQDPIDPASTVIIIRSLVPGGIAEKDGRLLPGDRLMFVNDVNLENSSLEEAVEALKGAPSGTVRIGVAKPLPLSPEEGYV

T3: PDZD2_2, O15018
T3 sequence (O15018 329-429, limits assumed, looked up): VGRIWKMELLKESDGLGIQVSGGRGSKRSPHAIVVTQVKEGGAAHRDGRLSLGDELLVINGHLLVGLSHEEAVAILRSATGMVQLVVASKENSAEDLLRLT

T4: TIAM2, Q8IVF5
T4 sequence (Q8IVF5 885-986, limits assumed, looked up): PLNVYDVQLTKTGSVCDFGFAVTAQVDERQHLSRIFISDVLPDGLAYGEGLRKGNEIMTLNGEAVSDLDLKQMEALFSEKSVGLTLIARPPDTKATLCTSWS

T5: APBA1_1, Q02410
T5 sequence (Q02410 651-752, limits assumed, looked up): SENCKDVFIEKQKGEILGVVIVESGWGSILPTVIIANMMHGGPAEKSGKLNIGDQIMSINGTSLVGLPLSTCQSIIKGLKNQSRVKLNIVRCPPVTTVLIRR

T6: RAPGEF6, Q8TEU7
T6 sequence (Q8TEU7 525-625, limits assumed, looked up): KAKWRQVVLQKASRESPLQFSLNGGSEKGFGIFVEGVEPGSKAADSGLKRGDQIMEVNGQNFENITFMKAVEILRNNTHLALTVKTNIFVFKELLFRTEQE

T7: LNX2_3, Q8N448
T7 sequence (Q8N448 463-564, limits assumed, looked up): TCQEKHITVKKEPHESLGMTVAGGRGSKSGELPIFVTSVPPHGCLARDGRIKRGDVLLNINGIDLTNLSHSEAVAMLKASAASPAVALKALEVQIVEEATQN

T8: MPDZ_12, O75970
T8 sequence (O75970 1857-1958, limits assumed, looked up): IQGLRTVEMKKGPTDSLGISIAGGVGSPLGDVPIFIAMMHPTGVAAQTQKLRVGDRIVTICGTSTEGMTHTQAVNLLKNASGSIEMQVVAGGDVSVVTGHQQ

T9: GRIP1_2, Q9Y3R0
T9 sequence (Q9Y3R0 145-248, limits assumed, looked up): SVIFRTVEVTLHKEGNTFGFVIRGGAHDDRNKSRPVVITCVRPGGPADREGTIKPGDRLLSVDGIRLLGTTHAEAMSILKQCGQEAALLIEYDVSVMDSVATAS

T10: PTPN13_1, Q12923
T10 sequence (Q12923 1088-1188, limits assumed, looked up): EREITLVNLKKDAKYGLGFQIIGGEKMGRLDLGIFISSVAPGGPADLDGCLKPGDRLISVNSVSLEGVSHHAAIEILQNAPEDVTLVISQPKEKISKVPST

B1: SLC17A1, Q14916 (peptide)
chain: WAKEKQHTRL
B2: KCNB1, Q14721 (peptide)
chain: AHGSTRDQSI
B3: DFNB31, Q9P202 (peptide)
chain: FLVTEFNVML

Target: MAST2, Q6P0Q8
Sequence (Q6P0Q8 1099-1202): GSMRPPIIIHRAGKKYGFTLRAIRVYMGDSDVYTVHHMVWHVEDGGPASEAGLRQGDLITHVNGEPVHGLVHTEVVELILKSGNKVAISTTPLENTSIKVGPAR
Assay: holdup assay
Parameters: key: below the threshold = too weak to quantify, mostly under pKd 3.1 to 4
Details: plain residues with an end cap or a label only (N-terminal biotin on a linker: ado-ado)

pKd | Binder
5.45 | B1
below the threshold | B2
5.15 | B3

Target: T1, RHPN1, Q8TCX5
Assay: holdup assay
Parameters: key: below the threshold = too weak to quantify, mostly under pKd 3.1 to 4
Details: plain residues with an end cap or a label only (N-terminal biotin on a linker: ado-ado)

pKd | Binder
3.97 | B1
below the threshold | B2
below the threshold | B3

Target: HTRA2, O43464
Sequence (O43464 355-458): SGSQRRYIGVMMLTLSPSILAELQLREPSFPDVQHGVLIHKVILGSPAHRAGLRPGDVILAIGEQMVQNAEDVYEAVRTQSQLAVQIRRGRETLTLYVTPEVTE
Assay: holdup assay
Parameters: key: below the threshold = too weak to quantify, mostly under pKd 3.1 to 4
Details: plain residues with an end cap or a label only (N-terminal biotin on a linker: ado-ado)

pKd | Binder
below the threshold | B1
below the threshold | B2
below the threshold | B3

Target: Inadl_1, Q8NI35
Sequence (Q8NI35 113-229): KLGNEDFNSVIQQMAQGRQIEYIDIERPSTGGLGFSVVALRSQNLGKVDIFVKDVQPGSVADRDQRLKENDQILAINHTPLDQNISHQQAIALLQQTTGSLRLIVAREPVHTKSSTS
Assay: holdup assay
Parameters: key: below the threshold = too weak to quantify, mostly under pKd 3.1 to 4
Details: plain residues with an end cap or a label only (N-terminal biotin on a linker: ado-ado)

pKd | Binder
below the threshold | B1
below the threshold | B2
below the threshold | B3

Target: DLG4_1, P78352
Sequence (P78352 62-152): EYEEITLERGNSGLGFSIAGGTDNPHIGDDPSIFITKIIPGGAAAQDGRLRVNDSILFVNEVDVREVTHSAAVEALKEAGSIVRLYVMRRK
Assay: holdup assay
Parameters: key: below the threshold = too weak to quantify, mostly under pKd 3.1 to 4
Details: plain residues with an end cap or a label only (N-terminal biotin on a linker: ado-ado)

pKd | Binder
3.82 | B1
below the threshold | B2
below the threshold | B3

Target: T2, MPDZ_5, O75970
Assay: holdup assay
Parameters: key: below the threshold = too weak to quantify, mostly under pKd 3.1 to 4
Details: plain residues with an end cap or a label only (N-terminal biotin on a linker: ado-ado)

pKd | Binder
below the threshold | B1
below the threshold | B2
below the threshold | B3

Target: MAGI2_2, Q86UL8
Sequence (Q86UL8 410-522): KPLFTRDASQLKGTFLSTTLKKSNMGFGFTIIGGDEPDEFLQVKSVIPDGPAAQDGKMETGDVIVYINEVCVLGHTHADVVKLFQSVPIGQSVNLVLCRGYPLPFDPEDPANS
Assay: holdup assay
Parameters: key: below the threshold = too weak to quantify, mostly under pKd 3.1 to 4
Details: plain residues with an end cap or a label only (N-terminal biotin on a linker: ado-ado)

pKd | Binder
4.71 | B1
below the threshold | B2
below the threshold | B3

Target: LNX1_2, Q8TBB1
Sequence (Q8TBB1 371-470): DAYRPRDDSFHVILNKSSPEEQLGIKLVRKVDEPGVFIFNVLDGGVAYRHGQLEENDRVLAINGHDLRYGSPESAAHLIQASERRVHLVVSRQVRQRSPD
Assay: holdup assay
Parameters: key: below the threshold = too weak to quantify, mostly under pKd 3.1 to 4
Details: plain residues with an end cap or a label only (N-terminal biotin on a linker: ado-ado)

pKd | Binder
below the threshold | B1
below the threshold | B2
below the threshold | B3

Target: PARD3_3, Q8TEW0
Sequence (Q8TEW0 582-685): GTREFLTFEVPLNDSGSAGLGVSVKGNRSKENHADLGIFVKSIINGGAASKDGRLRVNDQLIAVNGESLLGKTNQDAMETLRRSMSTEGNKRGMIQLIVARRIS
Assay: holdup assay
Parameters: key: below the threshold = too weak to quantify, mostly under pKd 3.1 to 4
Details: plain residues with an end cap or a label only (N-terminal biotin on a linker: ado-ado)

pKd | Binder
below the threshold | B1
below the threshold | B2
4.49 | B3

Target: NHERF4_1, Q86UT5-2
Sequence (Q86UT5 other isoform, or with tags, fused parts or gaps): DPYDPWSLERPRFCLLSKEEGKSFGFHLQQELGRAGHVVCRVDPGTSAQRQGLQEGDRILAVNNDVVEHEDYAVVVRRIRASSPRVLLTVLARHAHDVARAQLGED
Assay: holdup assay
Parameters: key: below the threshold = too weak to quantify, mostly under pKd 3.1 to 4
Details: plain residues with an end cap or a label only (N-terminal biotin on a linker: ado-ado)

pKd | Binder
4.07 | B1
3.54 | B2
3.9 | B3

Target: LAP2, Q96RT1
Sequence (Q96RT1 other isoform, or with tags, fused parts or gaps): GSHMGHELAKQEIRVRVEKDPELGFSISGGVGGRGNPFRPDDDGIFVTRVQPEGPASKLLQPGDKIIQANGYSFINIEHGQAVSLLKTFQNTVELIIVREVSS
Assay: holdup assay
Parameters: key: below the threshold = too weak to quantify, mostly under pKd 3.1 to 4
Details: plain residues with an end cap or a label only (N-terminal biotin on a linker: ado-ado)

pKd | Binder
below the threshold | B1
below the threshold | B2
below the threshold | B3

Target: GRIP2_7, Q9C0E4
Sequence (Q9C0E4 934-1023): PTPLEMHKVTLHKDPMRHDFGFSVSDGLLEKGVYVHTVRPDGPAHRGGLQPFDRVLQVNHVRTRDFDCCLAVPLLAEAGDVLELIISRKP
Assay: holdup assay
Parameters: key: below the threshold = too weak to quantify, mostly under pKd 3.1 to 4
Details: plain residues with an end cap or a label only (N-terminal biotin on a linker: ado-ado)

pKd | Binder
below the threshold | B1
below the threshold | B2
below the threshold | B3

Target: T3, PDZD2_2, O15018
Assay: holdup assay
Parameters: key: below the threshold = too weak to quantify, mostly under pKd 3.1 to 4
Details: plain residues with an end cap or a label only (N-terminal biotin on a linker: ado-ado)

pKd | Binder
below the threshold | B1
below the threshold | B2
3.63 | B3

Target: T4, TIAM2, Q8IVF5
Assay: holdup assay
Parameters: key: below the threshold = too weak to quantify, mostly under pKd 3.1 to 4
Details: plain residues with an end cap or a label only (N-terminal biotin on a linker: ado-ado)

pKd | Binder
below the threshold | B1
4.05 | B2
3.59 | B3

Target: SNX27, Q96L92
Assay: holdup assay
Parameters: key: below the threshold = too weak to quantify, mostly under pKd 3.1 to 4
Details: plain residues with an end cap or a label only (N-terminal biotin on a linker: ado-ado)

pKd | Binder
4.28 | B1
below the threshold | B2
4.4 | B3

Target: DLG2_3, Q15700
Assay: holdup assay
Parameters: key: below the threshold = too weak to quantify, mostly under pKd 3.1 to 4
Details: plain residues with an end cap or a label only (N-terminal biotin on a linker: ado-ado)

pKd | Binder
below the threshold | B1
3.82 | B2
below the threshold | B3

Target: FRMPD2_1, Q68DX3
Sequence (Q68DX3 770-861): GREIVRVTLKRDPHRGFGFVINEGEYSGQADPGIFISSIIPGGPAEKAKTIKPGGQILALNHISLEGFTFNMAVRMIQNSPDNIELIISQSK
Assay: holdup assay
Parameters: key: below the threshold = too weak to quantify, mostly under pKd 3.1 to 4
Details: plain residues with an end cap or a label only (N-terminal biotin on a linker: ado-ado)

pKd | Binder
below the threshold | B1
3.65 | B2
below the threshold | B3

Target: T5, APBA1_1, Q02410
Assay: holdup assay
Parameters: key: below the threshold = too weak to quantify, mostly under pKd 3.1 to 4
Details: plain residues with an end cap or a label only (N-terminal biotin on a linker: ado-ado)

pKd | Binder
below the threshold | B1
below the threshold | B2
below the threshold | B3

Target: T6, RAPGEF6, Q8TEU7
Assay: holdup assay
Parameters: key: below the threshold = too weak to quantify, mostly under pKd 3.1 to 4
Details: plain residues with an end cap or a label only (N-terminal biotin on a linker: ado-ado)

pKd | Binder
below the threshold | B1
3.91 | B2
below the threshold | B3

Target: NOS1, P29475
Sequence (P29475 9-101): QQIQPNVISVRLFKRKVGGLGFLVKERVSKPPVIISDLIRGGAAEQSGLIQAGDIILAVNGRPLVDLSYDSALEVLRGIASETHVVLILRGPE
Assay: holdup assay
Parameters: key: below the threshold = too weak to quantify, mostly under pKd 3.1 to 4
Details: plain residues with an end cap or a label only (N-terminal biotin on a linker: ado-ado)

pKd | Binder
3.71 | B1
below the threshold | B2
below the threshold | B3

Target: T7, LNX2_3, Q8N448
Assay: holdup assay
Parameters: key: below the threshold = too weak to quantify, mostly under pKd 3.1 to 4
Details: plain residues with an end cap or a label only (N-terminal biotin on a linker: ado-ado)

pKd | Binder
below the threshold | B1
below the threshold | B2
below the threshold | B3

Target: DLG4_3, P78352
Sequence (P78352 306-403): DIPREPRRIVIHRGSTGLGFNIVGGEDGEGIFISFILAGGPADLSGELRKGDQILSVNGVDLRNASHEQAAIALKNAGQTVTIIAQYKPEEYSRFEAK
Assay: holdup assay
Parameters: key: below the threshold = too weak to quantify, mostly under pKd 3.1 to 4
Details: plain residues with an end cap or a label only (N-terminal biotin on a linker: ado-ado)

pKd | Binder
below the threshold | B1
below the threshold | B2
below the threshold | B3

Target: T8, MPDZ_12, O75970
Assay: holdup assay
Parameters: key: below the threshold = too weak to quantify, mostly under pKd 3.1 to 4
Details: plain residues with an end cap or a label only (N-terminal biotin on a linker: ado-ado)

pKd | Binder
below the threshold | B1
3.62 | B2
below the threshold | B3

Target: T9, GRIP1_2, Q9Y3R0
Assay: holdup assay
Parameters: key: below the threshold = too weak to quantify, mostly under pKd 3.1 to 4
Details: plain residues with an end cap or a label only (N-terminal biotin on a linker: ado-ado)

pKd | Binder
below the threshold | B1
below the threshold | B2
below the threshold | B3

Target: GRIP2_3, Q9C0E4
Sequence (Q9C0E4 238-339): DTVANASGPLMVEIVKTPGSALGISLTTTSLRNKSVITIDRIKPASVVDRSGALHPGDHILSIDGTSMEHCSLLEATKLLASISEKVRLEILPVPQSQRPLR
Assay: holdup assay
Parameters: key: below the threshold = too weak to quantify, mostly under pKd 3.1 to 4
Details: plain residues with an end cap or a label only (N-terminal biotin on a linker: ado-ado)

pKd | Binder
below the threshold | B1
below the threshold | B2
below the threshold | B3

Target: FRMPD3, Q5JV73
Sequence (Q5JV73 12-100): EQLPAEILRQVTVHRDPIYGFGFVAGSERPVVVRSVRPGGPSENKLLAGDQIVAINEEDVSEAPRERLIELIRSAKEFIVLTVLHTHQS
Assay: holdup assay
Parameters: key: below the threshold = too weak to quantify, mostly under pKd 3.1 to 4
Details: plain residues with an end cap or a label only (N-terminal biotin on a linker: ado-ado)

pKd | Binder
below the threshold | B1
below the threshold | B2
3.97 | B3

Target: T10, PTPN13_1, Q12923
Assay: holdup assay
Parameters: key: below the threshold = too weak to quantify, mostly under pKd 3.1 to 4
Details: plain residues with an end cap or a label only (N-terminal biotin on a linker: ado-ado)

pKd | Binder
below the threshold | B1
below the threshold | B2
below the threshold | B3

Target: DLG1_1, Q12959
Assay: holdup assay
Parameters: key: below the threshold = too weak to quantify, mostly under pKd 3.1 to 4
Details: plain residues with an end cap or a label only (N-terminal biotin on a linker: ado-ado)

pKd | Binder
3.64 | B1
below the threshold | B2
below the threshold | B3
